# Target: T1, recombinant KDM5B (human), Q9UGL1
# T1 chain: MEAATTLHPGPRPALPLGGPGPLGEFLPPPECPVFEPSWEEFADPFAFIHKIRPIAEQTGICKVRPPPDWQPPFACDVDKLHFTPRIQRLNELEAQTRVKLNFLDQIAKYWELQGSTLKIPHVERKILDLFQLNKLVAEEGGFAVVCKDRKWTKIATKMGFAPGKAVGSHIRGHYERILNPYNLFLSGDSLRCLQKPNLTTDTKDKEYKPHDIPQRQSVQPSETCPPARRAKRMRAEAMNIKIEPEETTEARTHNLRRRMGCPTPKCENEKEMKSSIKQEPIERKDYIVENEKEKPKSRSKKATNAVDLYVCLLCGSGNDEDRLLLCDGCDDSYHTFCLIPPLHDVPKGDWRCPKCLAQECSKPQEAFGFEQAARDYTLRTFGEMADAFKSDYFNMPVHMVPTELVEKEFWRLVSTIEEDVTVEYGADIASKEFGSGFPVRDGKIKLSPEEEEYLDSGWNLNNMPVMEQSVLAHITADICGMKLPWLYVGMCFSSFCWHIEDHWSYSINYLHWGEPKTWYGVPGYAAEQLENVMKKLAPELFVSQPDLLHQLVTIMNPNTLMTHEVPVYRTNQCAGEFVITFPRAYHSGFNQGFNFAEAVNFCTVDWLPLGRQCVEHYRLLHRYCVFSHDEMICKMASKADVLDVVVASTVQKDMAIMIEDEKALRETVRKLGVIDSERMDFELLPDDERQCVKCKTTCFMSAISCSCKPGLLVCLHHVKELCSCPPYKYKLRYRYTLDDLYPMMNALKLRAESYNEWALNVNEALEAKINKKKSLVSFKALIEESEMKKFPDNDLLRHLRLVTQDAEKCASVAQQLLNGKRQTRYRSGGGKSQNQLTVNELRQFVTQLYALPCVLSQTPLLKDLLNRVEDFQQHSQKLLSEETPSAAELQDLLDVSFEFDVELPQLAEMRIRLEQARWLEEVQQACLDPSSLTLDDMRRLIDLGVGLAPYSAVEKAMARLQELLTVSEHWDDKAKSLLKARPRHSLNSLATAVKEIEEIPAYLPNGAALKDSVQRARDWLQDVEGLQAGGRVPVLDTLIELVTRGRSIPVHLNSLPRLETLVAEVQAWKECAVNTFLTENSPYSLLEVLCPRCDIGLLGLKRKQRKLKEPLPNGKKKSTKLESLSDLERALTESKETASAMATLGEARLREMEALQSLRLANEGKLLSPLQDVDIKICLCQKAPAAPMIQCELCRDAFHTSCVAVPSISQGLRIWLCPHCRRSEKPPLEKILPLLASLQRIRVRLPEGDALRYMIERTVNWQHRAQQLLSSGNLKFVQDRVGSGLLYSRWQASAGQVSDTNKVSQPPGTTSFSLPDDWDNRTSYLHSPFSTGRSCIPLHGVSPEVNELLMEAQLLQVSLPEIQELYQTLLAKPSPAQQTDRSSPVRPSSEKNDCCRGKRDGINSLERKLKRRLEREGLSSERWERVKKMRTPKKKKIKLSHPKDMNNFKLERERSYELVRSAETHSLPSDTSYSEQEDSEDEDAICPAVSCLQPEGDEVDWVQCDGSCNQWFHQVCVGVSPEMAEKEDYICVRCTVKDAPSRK
# Test: native gel or EMSA
# Details: remark: other sources report otherwise
binder,measurement,value
"recombinant KDM5B, Q9UGL1 1-1544 (natural protein) MEAATTLHPGPRPALPLGGPGPLGEFLPPPECPVFEPSWEEFADPFAFIHKIRPIAEQTGICKVRPPPDWQPPFACDVDKLHFTPRIQRLNELEAQTRVKLNFLDQIAKYWELQGSTLKIPHVERKILDLFQLNKLVAEEGGFAVVCKDRKWTKIATKMGFAPGKAVGSHIRGHYERILNPYNLFLSGDSLRCLQKPNLTTDTKDKEYKPHDIPQRQSVQPSETCPPARRAKRMRAEAMNIKIEPEETTEARTHNLRRRMGCPTPKCENEKEMKSSIKQEPIERKDYIVENEKEKPKSRSKKATNAVDLYVCLLCGSGNDEDRLLLCDGCDDSYHTFCLIPPLHDVPKGDWRCPKCLAQECSKPQEAFGFEQAARDYTLRTFGEMADAFKSDYFNMPVHMVPTELVEKEFWRLVSTIEEDVTVEYGADIASKEFGSGFPVRDGKIKLSPEEEEYLDSGWNLNNMPVMEQSVLAHITADICGMKLPWLYVGMCFSSFCWHIEDHWSYSINYLHWGEPKTWYGVPGYAAEQLENVMKKLAPELFVSQPDLLHQLVTIMNPNTLMTHEVPVYRTNQCAGEFVITFPRAYHSGFNQGFNFAEAVNFCTVDWLPLGRQCVEHYRLLHRYCVFSHDEMICKMASKADVLDVVVASTVQKDMAIMIEDEKALRETVRKLGVIDSERMDFELLPDDERQCVKCKTTCFMSAISCSCKPGLLVCLHHVKELCSCPPYKYKLRYRYTLDDLYPMMNALKLRAESYNEWALNVNEALEAKINKKKSLVSFKALIEESEMKKFPDNDLLRHLRLVTQDAEKCASVAQQLLNGKRQTRYRSGGGKSQNQLTVNELRQFVTQLYALPCVLSQTPLLKDLLNRVEDFQQHSQKLLSEETPSAAELQDLLDVSFEFDVELPQLAEMRIRLEQARWLEEVQQACLDPSSLTLDDMRRLIDLGVGLAPYSAVEKAMARLQELLTVSEHWDDKAKSLLKARPRHSLNSLATAVKEIEEIPAYLPNGAALKDSVQRARDWLQDVEGLQAGGRVPVLDTLIELVTRGRSIPVHLNSLPRLETLVAEVQAWKECAVNTFLTENSPYSLLEVLCPRCDIGLLGLKRKQRKLKEPLPNGKKKSTKLESLSDLERALTESKETASAMATLGEARLREMEALQSLRLANEGKLLSPLQDVDIKICLCQKAPAAPMIQCELCRDAFHTSCVAVPSISQGLRIWLCPHCRRSEKPPLEKILPLLASLQRIRVRLPEGDALRYMIERTVNWQHRAQQLLSSGNLKFVQDRVGSGLLYSRWQASAGQVSDTNKVSQPPGTTSFSLPDDWDNRTSYLHSPFSTGRSCIPLHGVSPEVNELLMEAQLLQVSLPEIQELYQTLLAKPSPAQQTDRSSPVRPSSEKNDCCRGKRDGINSLERKLKRRLEREGLSSERWERVKKMRTPKKKKIKLSHPKDMNNFKLERERSYELVRSAETHSLPSDTSYSEQEDSEDEDAICPAVSCLQPEGDEVDWVQCDGSCNQWFHQVCVGVSPEMAEKEDYICVRCTVKDAPSRK",stoichiometry N,2

# — publication PMC12241816
